Experimental findings from the supplement of paper PMC10567573 are described below.

± gives the standard deviation.

The nature of the series: protein stability index of a GFP-peptide fusion (GPS, HEK-293T) (PSI 1-6); higher = more stable. The settings on record: c terminus: a fixed tail appended.
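Note: 24-mer peptide tiles fused after GFP, lentivirally expressed, FACS-sorted into six equal bins by GFP/DsRed ratio, decoded by Illumina sequencing, PSI is the read-weighted mean bin number.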

As for LDSEIKKNSDGMEAAGVQIQMVNE [CD207], the protein stability index turned out to be 5.41 ± 0.59 (treatment: DMSO) and 5.22 ± 0.35 (treatment: MLN4924 1 uM, 8 h).

As to LDVECHEKEKHVNQLQTKVAVLEQ [SASS6], the protein stability index turned out to be 5.03 ± 0.11 (treatment: DMSO) and 5.07 ± 0.21 (treatment: MLN4924 1 uM, 8 h).

For LECEINTYRSLLESEDCKLPCNPC [KRT34], the protein stability index is, setting by setting: (treatment: DMSO) 3.81 ± 0.16; (treatment: MLN4924 1 uM, 8 h) 3.94 ± 0.35.

With LEDVERELDGPKQIFFGRRKDMIA [ZNF396], the protein stability index reads like this: (treatment: DMSO) 3.98 ± 0.3; (treatment: MLN4924 1 uM, 8 h) 4 ± 0.15.

LEEAEGAVGYQPEYSKFCRMSYQD [NFE2L1]: the protein stability index by setting is: (treatment: DMSO) 3.56 ± 0.4; (treatment: MLN4924 1 uM, 8 h) 3.05 ± 0.31.

Take LEEEEEEEEEAEDEEVVATAGDRL [IRX6]: the protein stability index runs as follows: (treatment: DMSO) 5.71 ± 0.27; (treatment: MLN4924 1 uM, 8 h) 5.46 ± 0.32.

Regarding LEKVECTPSQEHLKHQTVYRLLKC [FEM1A], the protein stability index worked out at 2.85 ± 0.26 (treatment: DMSO) and 3.07 ± 0.38 (treatment: MLN4924 1 uM, 8 h).

LEQPFLSVFKKGRRRVPVRNLGKV [PLEKHN1]: the protein stability index is, setting by setting: (treatment: DMSO) 3.19 ± 0.31; (treatment: MLN4924 1 uM, 8 h) 3.56 ± 0.58.

On to LEVEREAEKKREAKQRAKEAQERE [LRRC59], for which the protein stability index stood at 5.45 ± 0.42 (treatment: DMSO) and 5.63 ± 0.19 (treatment: MLN4924 1 uM, 8 h).

Turning to LEVMEEEELANLRASQREYEELRN [RSPH3], the protein stability index reads like this: (treatment: DMSO) 5.22 ± 0.43; (treatment: MLN4924 1 uM, 8 h) 5.09 ± 0.18.

In the case of LEYRFYEQLGSGDGIPQVYYFGPC [CSNK1G3], the protein stability index came out at 2.19 ± 0.29 (treatment: DMSO) and 2.13 ± 0.2 (treatment: MLN4924 1 uM, 8 h).

As for LFDTKHDVYSFAIVIWGVLTQKKP [RIPK4], the protein stability index by setting is: (treatment: DMSO) 2.49 ± 0.56; (treatment: MLN4924 1 uM, 8 h) 2.72 ± 0.17.

Consider LFLDLLQSYKDLCERHEKGVLHKH [SNX8], for which the protein stability index runs as follows: (treatment: DMSO) 2.49 ± 0.12; (treatment: MLN4924 1 uM, 8 h) 2.64 ± 0.37.

For the sequence LFSNSDHQRDGTLGALHTSSKPTA [SASS6], the protein stability index by setting is: (treatment: DMSO) 4.36 ± 0.27; (treatment: MLN4924 1 uM, 8 h) 4.51 ± 0.065.

For the sequence LGALHTSSKPTALPSASSAYFPGQ [SASS6], the protein stability index was determined as 3.59 ± 0.29 (treatment: DMSO) and 3.67 ± 0.45 (treatment: MLN4924 1 uM, 8 h).

For the sequence LGAQTQFDVKNDRYIVNGSHEANK [EIF5], the protein stability index stood at 4.8 ± 0.3 (treatment: DMSO) and 4.77 ± 0.2 (treatment: MLN4924 1 uM, 8 h).

Regarding LGDKGLSDTPYDSSASYEKENEMM [IKZF1], the protein stability index turned out to be 5.37 ± 0.14 (treatment: DMSO) and 5.26 ± 0.18 (treatment: MLN4924 1 uM, 8 h).

As for LGFARRNWGNGKRPNLETYYERVL [GDAP1], the protein stability index is, setting by setting: (treatment: DMSO) 2.38 ± 0.38; (treatment: MLN4924 1 uM, 8 h) 2.36 ± 0.57.

Consider LGKIFDLIGLPPEDDWPRDVSLPR [CDK4], for which the protein stability index is 2.34 ± 0.5 (treatment: DMSO) and 2.42 ± 0.13 (treatment: MLN4924 1 uM, 8 h).

LGNFKDDLLNVCMRHVEKMCKADL [TRIM29]: the protein stability index is, setting by setting: (treatment: DMSO) 2.36 ± 0.13; (treatment: MLN4924 1 uM, 8 h) 2.47 ± 0.19.

As for LGQHMVEQLLARGYAVNVFDIQQG [NSDHL], the protein stability index runs as follows: (treatment: DMSO) 2.72 ± 0.9; (treatment: MLN4924 1 uM, 8 h) 2.22 ± 0.57.

Take LGSAPLDQEPLLSIDLGTAHSAAV [NEK8]: the protein stability index is 4.08 ± 0.22 (treatment: DMSO) and 4.11 ± 0.15 (treatment: MLN4924 1 uM, 8 h).

As to LGSDDINVVTCAAGILSNLTCNNY [CTNNB1], the protein stability index (treatment: DMSO) was determined as 2.27 ± 0.22 and the protein stability index (treatment: MLN4924 1 uM, 8 h) amounted to 2.37 ± 0.22.

LHALKLRSPDASPSRAPPSTQEPQ [GNAS]: the protein stability index worked out at 4.54 ± 0.25 (treatment: DMSO) and 4.65 ± 0.1 (treatment: MLN4924 1 uM, 8 h).

On to LHAWEMKPYAVMVFQTEQKNLFRL [N4BP2L1], for which the protein stability index was 2.44 ± 0.61 (treatment: DMSO) and 2.41 ± 0.41 (treatment: MLN4924 1 uM, 8 h).

Take LILSREASWAKPHYEFNLSRMKFR [LCOR]: the protein stability index was 2.27 ± 0.18 (treatment: DMSO) and 2.11 ± 0.28 (treatment: MLN4924 1 uM, 8 h).

As to LKDEEGKLKDLSTVTSLQVPVLKP [PPP2R2C], the protein stability index is, setting by setting: (treatment: DMSO) 4.91 ± 0.17; (treatment: MLN4924 1 uM, 8 h) 5.02 ± 0.085.

As to LKVRSHDPEEAIRHDVIVSIVTAA [PDS5B], the protein stability index (treatment: DMSO) was 2.43 ± 0.19 and the protein stability index (treatment: MLN4924 1 uM, 8 h) came out at 2.35 ± 0.27.

In turn, LLATRIAVYLMTFLIVTVAWAAHT [TMEM175] showed a protein stability index (treatment: DMSO) of 3.5 ± 0.17 and a protein stability index (treatment: MLN4924 1 uM, 8 h) of 3.12 ± 0.24.
